Measurements published in patent publication US20050249734A1.
Ends that are not written are not given here.

What was measured:
[1] = target: somatostatin receptors on GH4 pituitary cells; test: cell-based or functional assay
[2] = target: somatostatin receptors on GH4 pituitary cells; test: displacement of 125I-somatostatin-14 from GH4 pituitary cells

Molecule	inhibition of TRH-stimulated cAMP in GH4 cells [1]	inhibition of VIP-stimulated cAMP in GH4 cells [1]	Kd [2]
somatostatin-14 peptide (from UniProt P61278 103-116)	10 nM	50 % at 10^-6 M	5 nM
PCKNFFWKTFSSCK-NH2 (cysteine pairing not given here) [cortistatin-14 peptide]	10 nM	50 % at 10^-6 M	5 nM
